Source: PMC10189407 (The Journal of Biological Chemistry, 2023)

Biological target: Aβ(1–28) (Homo sapiens (assumed), UniProt P05067)
Experiment: SPR

Aβ(1–28), sequence (P05067 672-699): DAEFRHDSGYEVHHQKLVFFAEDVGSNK

| binding result | Binder |
| --- | --- |
| binds | crenezumab G33S(HC)-NEP fusion, IgG-CTF-2 format (antibody, V domains shown) VH: EVQLVESGGGLVQPGGSLRLSCAASGFTFSSYSMSWVRQAPGKGLELVASINSNGGSTYYPDSVKGRFTISRDNAKNSLYLQMNSLRAEDTAVYYCASGDYWGQGTTVTVSS VL: DIVMTQSPLSLPVTPGEPASISCRSSQSLVYSNGDTYLHWYLQKPGQSPQLLIYKVSNRFSGVPDRFSGSGSGTDFTLKISRVEAEDVGVYYCSQSTHVPWTFGQGTKVEIK |
| binds | crenezumab G33S(HC)/S56F(LC)-NEP fusion, IgG-CTF-2 format (antibody, V domains shown) VH: EVQLVESGGGLVQPGGSLRLSCAASGFTFSSYSMSWVRQAPGKGLELVASINSNGGSTYYPDSVKGRFTISRDNAKNSLYLQMNSLRAEDTAVYYCASGDYWGQGTTVTVSS VL: DIVMTQSPLSLPVTPGEPASISCRSSQSLVYSNGDTYLHWYLQKPGQSPQLLIYKVSNRFFGVPDRFSGSGSGTDFTLKISRVEAEDVGVYYCSQSTHVPWTFGQGTKVEIK |
